# Measurements taken from paper PMC6336276.
# Legend:
# [1] = system: P69949; test: AUC; sedimentation velocity of Str. enolase alone, TME-SO4, 20°C, 37000 rpm; c(s) distribution, percent octamer and monomer; octamer to monomers and other species
# [2] = target: Str. enolase DB (Streptococcus pyogenes) (UniProt P69949); test: as above
# [3] = target: Str. enolase DB no hexa-his tag (Streptococcus pyogenes) (UniProt P69949); test: as above
# [4] = target: Str. enolase F137L/E363G (Streptococcus pyogenes) (UniProt P69949); test: AUC; sedimentation velocity of Str. enolase alone in different buffers (KPi with or without Mg(II), NaCl, imidazole; TME-SO4); octamer to monomers, dimers, tetramers
# [5] = target: Str. enolase DB (Streptococcus pyogenes) (UniProt P69949); test: dual polarization interferometry (DPI); Str. enolase adsorbed first on an unmodified silicon oxynitride chip, then DPgn injected; 3 μM each protein, 8 min injections, 25 μL/min/channel, 20°C; proteins in TME-SO4, wash buffer 10 mM phosphate
# [6] = target: Str. enolase 137/363–2 K252A K255A (Streptococcus pyogenes) (UniProt P69949); test: as above
# [7] = target: Str. enolase 137/363–4 (Streptococcus pyogenes) (UniProt P69949); test: AUC; sedimentation velocity, TME-SO4, 20°C; five concentrations of 137/363–4 (1-11.7 μM) and DPgn (0.43-4.2 μM); global fit to an equilibrium constant in Sedphat
# [8] = target: Str. enolase 137/363–4 (Streptococcus pyogenes) (UniProt P69949); test: SPR; localized SPR (Nicoya OpenSPR); hexa-his-tagged Str. enolase 137/363–4 immobilised on a Ni-NTA chip, DPgn injected at successive concentrations in duplicate, ovalbumin as control; Pi, imidazole, NaCl buffer; close to 27 °C; one to two model (TraceDrawer 1.5)
# [9] = target: Str. enolase DB (Streptococcus pyogenes) (UniProt P69949); test: AUC; sedimentation velocity, 20°C, 37000 rpm, TME-SO4; DPgn alone, Str. enolase alone and the mixture at the same concentrations; shift of the s value of the DPgn peak (Sedfit c(s), DCDT+)
substance,measurement,setting,value
Str. enolase 137/363–2 K252A K255A,% monomer (from AUC),[1],70.4%
Str. enolase DB,% monomer (from AUC),[1],0.4 (nil?)
Str. enolase DB (from UniProt P69949 1-435) (enzyme),% octamer (from AUC),[2],88%
same,stoichiometry N,[2],8
Str. enolase DB no hexa-his tag,% monomer (from AUC),[1],1.3%
Str. enolase DB no hexa-his tag (from UniProt P69949 1-435) (enzyme),% octamer (from AUC),[3],81.6%
Str. enolase F137L/E363G (from UniProt P69949 1-435) (enzyme),stoichiometry N,[4],8
canine plasminogen (natural protein),mass of enolase + DPgn layer,[5],2.8 ng/mm^2
same,mass of enolase + DPgn layer,[6],5.3 ng/mm^2
same,Ka,[7],340000 M⁻¹
same,Kd,[7],3 µM
same,KD1 (site 1 of a one to two model),[8],1.34 µM
same,KD2 (site 2 of a one to two model),[8],2.66 µM
same,ka1 (site 1 of a one to two model),[8],1300
same,ka2 (site 2 of a one to two model),[8],9600
same,kd1 (site 1 of a one to two model),[8],0.0017
same,kd2 (site 2 of a one to two model),[8],0.026
same,stoichiometry N (DPgn per enolase monomer),[8],1.6
same,Ka,[9],< 10000 M⁻¹
